From the supplement of paper PMC9170038

Tests used:
[1] = test system: MS2 coat protein; experiment: apparent KD of MS2 coat protein, switch ON state; designed switch direction (-1 OFF switch, 1 ON switch): -1; higher = weaker reporter binding; details: FMN input: 0 or 200 uM; Eterna round: R93 (includes R88 designs)
In short: (§1)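 Apparent KD was obtained for each design as the median of normalised binding-curve fits over its clusters. RNA switches transcribed on-chip from Illumina sequencing clusters were titrated with SNAP-549-labelled MS2 coat protein (twofold steps, 0.7 or 1.5 nM to 3 µM) in 100 mM Tris-HCl pH 7.5, 80 mM KCl, 4 mM MgCl2, without or with constant ligand.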

[2] = test system: MS2 coat protein; experiment: apparent KD of MS2 coat protein, switch OFF state (with FMN for OFF switches, without FMN for ON switches); designed switch direction (-1 OFF switch, 1 ON switch): -1; higher = weaker reporter binding; details: FMN input: 0 or 200 uM; Eterna round: R93 (includes R88 designs)
In short: as §1

Sequence	apparent KD of MS2 coat protein [1]	apparent KD of MS2 coat protein [2]
AAGUUAUUAGGAUAUACUAGUGCGAUUAAUACGCUGAUAGUACAUGAGGAUCACCCAUGUAGAAGGAAUAAAAA [JR_Exc002_Sub409]	35.1 nM	19.1 nM
AAGUUAUUAGGAUAUACUUGUGCGAUUAAUACGCUGAUAGUACAUGAGGAUCACCCAUGUAGAAGGAAUAAAAA [JR_Exc002_Sub410]	33.4 nM	21.2 nM
AAUAAACAUGAGGAUCACCCAUGUCAGGAUAUGCACAAACAAACAAACAAACAAGCAAGCAGAAGGGACACUAC [Amethyst 88]	25.4 nM	28.6 nM
AAUAAAGGAGGAUAUACUAAAGAAAUGAAAAGAAAUAAAGAACAUGAGGAUCACCCAUGUAGAAGGCCUAAUAA [Yaqub-Har]	31.3 nM	22.8 nM
AAUAAGACAGGAUAUACUAAAGAAAUGAAAAGAAAUAAAGAACAUGAGGAUCACCCAUGUAGAAGGGUCAAUAA ['Apepi]	50.3 nM	32.4 nM
AAUAAGUGAGGAUAUGGAAAUAGUAGAUAAGAUACCCUAAACCAGAAGGCACAUGAGGAUCACCCAUGUAAAUA [JR_Exc004_Sub004]	32.7 nM	23.7 nM
AAUAAGUGAGGAUAUGUAAAUAGUAGAUAAGAUUCCCUAAAACAGAAGGCACAUGAGGAUCACCCAUGUAAAUA [JR_Exc004_Sub007]	25.9 nM	19.7 nM
ACAAAUGUAGGAUAUACAUGAGGAUCACCCAUGUGGCAGAAACAGCAAACAAGACGAAGUAGAAGGACAACGAC [JR_Exc003-Sub902]	29.1 nM	28.6 nM
ACAGUUACAGGAUAUACAAGGGUAACUUCAAAUAAACCUCUACAUGAGGAUCACCCAUGUAGAAGGGUAACUGA [Ex2 Design 200 (maybe): Random 16]	22.8 nM	21.7 nM
ACAGUUAGAGGAUAUACGUGGAAAAAUAAAAAUAAAAAACUACAUGAGGAUCACCCAUGUAGAAGGCUAACUGA [Ex2 Design 196: Random 12E]	24.8 nM	66.1 nM
ACCAGACAUGAGGAUCACCCAUGUCAGGAUAUAGUAUGAAAAAAAAAAAAAAAAAAUACUAGAAGGGACAAGGG [Design 14: Super Stable Short Helix 5]	29.7 nM	63.8 nM
ACGUUGAGAGGAUAUACGAACAUGUCAAAAGACGUGAAGGGACAUGAGGAUCACCCAUGUAGAAGGCUCAACGA [Mat - Exclusion 2 - JL mod - D9]	46.3 nM	186 nM
AGAAACUGAGGAUAUACUUUGGGAAAAGAAAAGAUGAUGUUACAUGAGGAUCACCCAUGUAGAAGGCAGAAAGA [Mat - Exclusion 2 - Mod - D152]	25.5 nM	30.3 nM
AGAAAGUCAGGAUAUACGAAAAAGAAAAAAGACGAGAACGGACAUGAGGAUCACCCAUGUAGAAGGGACAAGAA [Diamond 14]	66.4 nM	51.4 nM
AGAAAGUCAGGAUAUACGAAUAAGAAUAAAGACGAGAUCGGACAUGAGGAUCACCCAUGUAGAAGGGACAAGAA [Diamond 17]	121 nM	74.7 nM
AGAACACAUGAGGAUCACCCAUGUCAGGAUAUUCAAACAAAAACAAAACAAAACAAACGAAGAAGGGACAAAAG [May 2]	32.3 nM	36 nM
AGAUGACAUGAGGAUCACCCAUGUAAGGAUAUACGAGUAGGAGAAUAAAAUGAUAGAAGUAGAAGGUACGUAGA ['Exclusion 1' Lab (2)]	68 nM	58.1 nM
AGCAAGUGAGGAUAUCUGGAUAGGAAAAAGAAAACCUAUCCAGAGAAGGCACAUGAGGAUCACCCAUGUAAAAA [JL cataway mod 7]	39.1 nM	41.4 nM
AGCUACUGAGGAUAUACGAACAUGUCAAAAGACGUAAGGGAACAUGAGGAUCACCCAUGUAGAAGGCAGUAGCA [Diamond 49]	44.5 nM	91.9 nM
AGCUAGUCAGGAUAUACGAAAAUGCUAGAAGACGUAAGGGAACAUGAGGAUCACCCAUGUAGAAGGGACUAGCA [Diamond 46]	21.9 nM	30.4 nM
AGCUAGUCAGGAUAUACGAACAAGAAAAAAGACGAGAACGGACAUGAGGAUCACCCAUGUAGAAGGGACUAGCA [Diamond 9]	23.8 nM	26.3 nM
AGCUAGUGAGGAUAUACAAGAAUAUAAACGAACAUAAAGGGACAUGAGGAUCACCCAUGUAGAAGGCACUAGCA [Diamond 73]	42.6 nM	152 nM
AGCUAGUGAGGAUAUACGAACAUGUCAAAAGACGUGAAGGGACAUGAGGAUCACCCAUGUAGAAGGCGCUAGCA [JL 74% mod]	53.4 nM	157 nM

Sequence	apparent KD of MS2 coat protein [1]	apparent KD of MS2 coat protein [2]
AGCUGGUCAGGAUAUGCGUGAAGAAUAAAACAAAUAACAACGCAGAAGGGACAUGAGGAUCACCCAUGUCAGCA [May 50]	23.9 nM	20.3 nM
AGGAAACAUGAGGAUCACCCAUGUCAGGAUAUACAAAAGAAAAGAAAAGAAAGAAGAAGUAGAAGGGACACGAA [Double Falcon]	25.1 nM	22.5 nM
AGGAAACAUGAGGAUCACCCAUGUGAGGAUAUUGAAAAGAAAAGAAAAGAAAGAAGAACAAGAAGGUACAAGAA [Nyuserre Ini]	22.3 nM	27.3 nM
AGGUGACAUGAGGAUCACCCAUGUCAGGAUAUAUACACCACCGGCGUGAAGCCGGCGGAUAGAAGGGACAAAAU [Anesar]	15.6 nM	18.2 nM
AGUAUGCGAGGAUAUACAUGAGGAUCACCCAUGUGAGAGAUAAAAGUGAGAAAGAAAAGUAGAAGGCGCGUACA [JL Lego Mod 21]	50.7 nM	326 nM
AGUAUGCGAGGAUAUACAUGAGGAUCACCCAUGUGAGAGAUAAGAGUGAGAAAGACAAGUAGAAGGCGCGUACA [JL Lego Mod 25]	78.4 nM	71.7 nM
AGUCAUACAGGAUAUACAUGAGGAUCACCCAUGUAAAUCCUAAAAAAGUGAUCCUCAUGUAGAAGGGUAUGACA [EX3 220: Super Stable 20]	19.1 nM	19.7 nM
AGUCUGAGAGGAUAUACAUGAAAAAAAAAAGUAAGAUCCCUACAUGAGGAUCACCCAUGUAGAAGGCUCUGACA [Ex2 Design 145: Sub-opt 9]	31.4 nM	29.4 nM
AGUCUGAGAGGAUAUACAUGGGAAAAAAAAGUCAGAUCCCUACAUGAGGAUCACCCAUGUAGAAGGCUCUGACA [Ex2 Design 147: Sub-opt 11]	22.2 nM	11.4 nM
AGUGAGUGAGGAUAUGCCUGAAGAAUAAAAGAAAUAACGAGGCAGAAGGCACAUGAGGAUCACCCAUGUACACA [May 65]	32.1 nM	28.2 nM
AGUGAGUGAGGAUAUUACUGAAGAAUAAAAGAAAUAACGAGUAAGAAGGCACAUGAGGAUCACCCAUGUACACA [May 62]	25.5 nM	24 nM
AGUUGGCGAGGAUAUACAUGAGGAUCACCCAUGUAAAAUAAAUAAAAAAGGGAAGAAAGUAGAAGGCGCUGACA [73%, Moding Norbert Elias, 11]	40.5 nM	175 nM
AGUUGGCGAGGAUAUACAUGAGGAUCACCCAUGUGAAAGAAAAAAGUGAAAAAGAAAAGUAGAAGGCGCUGACA [73%, Moding Norbert Elias, 4]	31.3 nM	131 nM
AUAAAGUCAGGAUAUGUAAAAAUAACGAAAGUUAUAAAUAAACAGAAGGGACAUGAGGAUCACCCAUGUACAAU [Opal 15]	25.4 nM	21.2 nM
AUAAAGUGAGGAUAUGCUAAUAAAUAAAUAGACAAAUAAAUGCAGAAGGCACAUGAGGAUCACCCAUGUAAGAA [Ex 4 Tesla 3]	28.4 nM	28.9 nM
AUAAUACAUGAGGAUCACCCAUGUCAGGAUAUGCUAAAAUUAAAAUUAAAUCAAAAAUGUAGAAGGGACUAAAU [Exclusion Z3]	49.8 nM	42.9 nM
AUAAUGUCAGGAUAUCAGUAGUAAAAAAAAAAAAUUACUACUGAGAAGGGACAUGAGGAUCACCCAUGUCAAAA [EX4 307: Super Stable 7]	27.6 nM	24.9 nM
AUCUAGUCAGGAUAUGACUACAUAAAAAAUAAAAAAUGUAGUCAGAAGGGACAUGAGGAUCACCCAUGUACUAA [Mat - Exclusion 4 - Eli mod - D95]	26.3 nM	29.3 nM
CAAAAGCUAGGAUAUGCUAAUUGUUCCUUAAGUCAAAAUAAACAUGAGGAUCACCCAUGUAGAAGGAGCCCACA [Tegean]	31.5 nM	16.9 nM
CAAUCUGCAGGAUAUACAUGAGGAUCACCCAUGUAAGGACAAUAAAUAAGAAGAAGAAGUAGAAGGGCAGACAA [e3]	27.5 nM	29.2 nM
CAGUACUGAGGAUAUACAUGAGGAUCACCCAUGUGGUUAAGCUAGGAAACUAGCACAUGUAGAAGGCAGUACUG [Ex3: 814]	50.1 nM	19.5 nM
CAUUCACAUGAGGAUCACCCAUGUAAGGAUAUCGAAAUAAAACUAAUCAAUAAACAAACGAGAAGGUACAAAAA [Exclusion 1 design 9]	26 nM	21.2 nM
CCCAUGUCAGGAUAUCAGUAGUAAAAAAAAAAAAUUACUACUGAGAAGGGACAUGAGGAUCACCCAUGUUCCAA [EX4 318: Super Stable 18]	58.3 nM	53 nM
